In publication PMC3575510, “Antibiotic Inducibility of the mexXY Multidrug Efflux Operon of Pseudomonas aeruginosa: Involvement of the MexZ Anti-Repressor ArmZ” (PLoS ONE, 2013):

B1: unnamed (parent)
chain 1: MGNYIKPLSAGVALIASDSTWIEGKAIQQLQTTAELDGMCRVVGLPDLHPGRGYPVGAAFFSVGRFYPALVGNDIGCGMALWETGLALGKLSADKLEKRLGNLDLPLDETWSDCIEALDLPAREHWRALGTIGGGNHFAELQQVETVFDQAALHALGLDADRLQLLVHSGSRGLGQAILQEHVSLHGHAGLLDGSLEASAYLARHADALRFAEGNRQLIARRILERLRCDGLELLDINHNLVVPAQVDGVDGWLHRKGATPADQGVLVIPGSRGDYSYLVEPVPSAQSLFSLAHGAGRKWQRGECRERLAARFSVDQLGRTRLGSRVICGDRQLIYEEAPEAYKGIDSVVGALLEAGLLRLVARLKPVLTYKTRGECCR
chain 2: MARKTKEESQKTRDGILDAAERVFLEKGVGTTAMADLADAAGVSRGAVYGHYKNKIEVCLAMCDRAFGQIEVPDENARVPALDILLRAGMGFLRQCCEPGSVQRVLEILYLKCERSDENEPLLRRRELLEKQGQRFGLRQIRRAVERGELPARLDVELASIYLQSLWDGICGTLAWTERLRDDPWNRAERMFRAGLDSLRSSPYLLLADA

Variants of: B1
Assay: bacterial 2-hybrid assay (β-galactosidase activity in E. coli SU202)
Settings: with partner chain of the complex shown; IPTG-induced cells; read off a plot
For chain 1 G231D, the response was 730 Miller Units.
With chain 1 G76S the response was 470 Miller Units.
For chain 1 G252S, the response was 700 Miller Units.
chain 1 R221Q was tested, and the response was 510 Miller Units.
With chain 1 R221W the response was 680 Miller Units.
chain 1 P68S gave a response of 610 Miller Units.
For chain 1 R216C, the response was 720 Miller Units.
